In article PMC11503464, “Copper-61 is an advantageous alternative to gallium-68 for PET imaging of somatostatin receptor-expressing tumors: a head-to-head comparative preclinical study” (Frontiers in Nuclear Medicine, 2024):

Assays:
[1] = Stability of labeling solutions at room temperature by radio-HPLC; assay type: physicochemical; conditions: labeling solution stored at room temperature
Description: An aliquot of DOTA-TOC or NODAGA-TOC (3–6 nmol, 1 mg/ml in TraceSelect water) was diluted in 0.25–0.30 ml ammonium acetate (0.5 M, pH 8), followed by the addition of [^61Cu]CuCl2 (30–150 MBq). The reaction mixture was incubated for 15 min at 95°C (DOTA-TOC) or at room temperature (NODAGA-TOC). The pH of the reaction mixture was between 5 and 6. Quality control was performed on a Shimadzu 2020 HPLC system connected to a Berthold radio detector (Flow Star 513).

[2] = system: HEK-SST2 cells; assay: Efflux from HEK-SST2 cells; assay type: cell-based, human
Description: The efflux was studied after 1 h incubation of the cells with the radiotracer at 37°C and the removal of the unbound fraction and the cell membrane-bound fraction, as described above (acid-wash). The cells were then incubated with fresh medium at 37°C either alone or with a competitor (1,000-fold excess of DOTA-TOC, 2.5 µM/well) for 10, 20, 30, 45, 60, 90, 120, 150, 180, and 240 min. At each time point, the efflux (or retention) was measured after the removal of the medium without or with the competitor and replacement with fresh pre-warmed (37°C) medium alone or with the competitor. At the end of the experiment, the cells were detached using 1 M NaOH at 37°C and collected to determine the remaining cell-associated radiotracer.

[3] = assay type: physicochemical; conditions: pH 7.4
Description: Briefly, the radiotracer (10 µl, 1 µM) was added to 1 ml of a 1:1 pre-saturated mixture of 1-octanol and phosphate-buffered saline (PBS pH 7.4). The solution was vortexed for 30 min and then centrifuged at 3,000 rpm to achieve phase separation. Aliquots of 0.1 ml from each phase were collected and measured in a γ-counter. The distribution coefficient was calculated as the average of the logarithmic values (n = 3) of the ratio between the radioactivity in the organic and PBS phases. [^68Ga]Ga-DOTA-TOC was used as a reference.

[4] = system: HEK-SST2 cells; assay: Cellular uptake and distribution on intact HEK-SST2 cells; assay type: cell-based, human; conditions: specific uptake, after 4 h at 37°C
Description: At the defined time points, the medium was removed, and the cells were washed twice with ice-cold PBS. The cells were then treated twice for 5 min with ice-cold glycine solution (0.05 M, pH 2.8) to detach the cell membrane-bound fraction (acid released). Afterward, the cells containing the internalized fraction were detached using NaOH 1 M at 37°C and collected for measurement. [^68Ga]Ga-DOTA-TOC was evaluated as a reference.

[5] = system: HEK-SST2 xenografts; conditions: female, athymic nude-Foxn1^nu/Foxn1^+, mouse, in vivo, 200 pmol, 1 h
[6] = system: HEK-SST2 xenografts; assay: PET/CT in vivo specificity (DOTA-TOC pre-injection) in HEK-SST2 xenografts; parameters: species or system mice; conditions: PET/CT 1 h p.i.
Description: The mice were anesthetized with 1.5% isoflurane and dynamic PET scans were acquired from 0 to 1 h post-injection (p.i.). The mice were euthanized by CO2 at 4 h p.i., their bladders were mechanically emptied, and static PET scans were acquired for 30 min. […] The PET images were acquired in list mode using a small-animal PET scanner (β-CUBE, Molecubes, Ghent, Belgium) with a spatial resolution of 0.85 mm and an axial field-of-view of 13 cm. All PET scans were decay corrected and reconstructed into a 192 × 192 × 384 matrix by an ordered subsets maximization expectation (OSEM) algorithm using 30 iterations, a voxel size of 400 µm × 400 µm × 400 µm, and15 min per frame. Computed tomography (CT) data was used to apply attenuation correction on the PET data. The CT was imaged supine, headfirst, using the nanoSPECT/CT™ scanner (Bioscan Inc.). Topograms and helical CT scans of the whole mouse were first acquired using the following parameters: x-ray tube current: 177 µA, x-ray tube voltage 45 kVp, 90 s, and 180 frames per rotation, pitch 1. […] The specificity of the ^61Cu-labeled tracers was assessed in HEK-SST2 xenografts by administering DOTA-TOC (100 µl/200 nmol) 2–5 min pre-injection, followed by the injection of the radiotracer (100 µl/200 pmol/4 MBq). […]

SMILES: C[C@@H](O)[C@@H]1NC(=O)[C@H](CCCCN)NC(=O)[C@@H](Cc2c[nH]c3ccccc23)NC(=O)[C@H](Cc2ccc(O)cc2)NC(=O)[C@@H](NC(=O)[C@@H](Cc2ccccc2)NC(=O)CN2CCN(CC(=O)O)CCN(CC(=O)O)CCN(CC(=O)O)CC2)CSSC[C@@H](C(=O)N[C@H](CO)[C@@H](C)O)NC1=O [[^61Cu]Cu-DOTA-TOC] [metal not drawn]
- Radiochemical purity (%) 2 h ([1]; 2 h after end of synthesis): 96 ± 1%
- Radiochemical purity (%) 4 h ([1]; 4 h after end of synthesis): 95 ± 1%
- Efflux plateau in the absence of a competitor ([2]; after 2 h, 37°C, no further increase at 4 h): approximately 40%
- Efflux with competitor ([2]; after 4 h at 37°C, DOTA-TOC (competitor) added to the medium): 80%
- log D(O/PBS pH 7.4) [3]: −2.81 ± 0.29
- Cellular uptake (surface bound + internalized) [4]: 78.3 ± 1.3%
- Heart uptake [5]: 0.63 ± 0.07 %IA/g
- Intestine uptake [5]: 2.94 ± 0.15 %IA/g
- Liver uptake [5]: 3.59 ± 0.49 %IA/g
- Abdominal uptake (liver and intestine) after high excess DOTA-TOC pre-injection [6]: not suppressed
